# Data as given in the supplement of paper PMC10126150.
# ± gives the standard deviation of the averaged measurements.
# System: ATP
# Test: switch fluorescence ratio, 500 uM ATP over buffer (Cy3 cluster intensity, sum of 5 cycles each) (fold (ratio)); higher = stronger signal-on switching upon ATP binding; sequences stand for … in TCGTCGGCAGCGTCAGATGTGTATAAGAGACAGTTTTTTTTTTTTTTTTTTTTTTTTT…TC
# Conditions: aptamer strand: ATP DNA aptamer (quencher-CACCTGGGGGAGTATTGCGGAGGAAGG + anchor), 100 nM annealed; ATP concentration: 500 uM
# Method in brief: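 Exposure to 500 uM ATP lasted 15 min at 22 °C before imaging, and a selection-buffer image was taken beforehand, for Cy3-labelled switching-strand clusters on a modified Illumina MiSeq flow-cell annealed to 100 nM quencher-labelled ATP aptamer. Five buffer/ATP cycles were run with NaOH stripping and re-annealing between them. The fluorescence ratio per cluster is summed target-cycle over summed buffer-cycle Cy3 intensity, averaged per switch-domain sequence. Clusters outside 100-1000 RFU were excluded.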
sequence,measurement,value
TTTGAGAGAT,switch fluorescence ratio,0.991 ± 0.029
CGGGAACTGG,switch fluorescence ratio,0.97 ± 0.023
GGGTAAGGAC,switch fluorescence ratio,1.03 ± 0.014
TTACCGGGGT,switch fluorescence ratio,0.995 ± 0.035
CCAATGGGAA,switch fluorescence ratio,1.01 ± 0.025
GATATCATTT,switch fluorescence ratio,1.03 ± 0.022
TCCAGGGGAG,switch fluorescence ratio,1.13 ± 0.032
AAGGGCATTA,switch fluorescence ratio,0.9891 ± 0.0096
ATAGAGCCTA,switch fluorescence ratio,1.03 ± 0.02
CTCTTGGGGA,switch fluorescence ratio,1.02 ± 0.0057
AGTGCGGGTC,switch fluorescence ratio,1.02 ± 0.012
AGGGGGCTCG,switch fluorescence ratio,1 ± 0.024
CTTATCGTTC,switch fluorescence ratio,1.02 ± 0.013
TCCTTTTTGT,switch fluorescence ratio,1.41 ± 0.54
TTGACTTATT,switch fluorescence ratio,1 ± 0.043
AATGTGTATG,switch fluorescence ratio,0.991 ± 0.033
TGCTTTAAGG,switch fluorescence ratio,1.02 ± 0.04
AATGAGTGGG,switch fluorescence ratio,1 ± 0.041
CAATGGTAGT,switch fluorescence ratio,0.9749 ± 0.0024
GGGATAAAGT,switch fluorescence ratio,0.988 ± 0.022
TTTCAGCGGG,switch fluorescence ratio,1 ± 0.018
TTATATGGTG,switch fluorescence ratio,0.98 ± 0.041
AACACCAGGT,switch fluorescence ratio,1.38 ± 0.45
TATTTTTCAG,switch fluorescence ratio,1.03 ± 0.015
ATTTAGGCAT,switch fluorescence ratio,0.987 ± 0.042
AGGATACTGG,switch fluorescence ratio,0.975 ± 0.031
TAAGAAGGAA,switch fluorescence ratio,0.9918 ± 0.0091
TTTCGCAACG,switch fluorescence ratio,1.09 ± 0.047
CAGGGGAAGC,switch fluorescence ratio,0.999 ± 0.011
AGTGTAATAT,switch fluorescence ratio,1 ± 0.023
TTATAGGTTA,switch fluorescence ratio,1.02 ± 0.015
CGGAGGATGC,switch fluorescence ratio,1.31 ± 0.019
CAGGGGAAGG,switch fluorescence ratio,1.04 ± 0.053
GTTGGGGCGT,switch fluorescence ratio,0.97 ± 0.044
TCCTTTTGT,switch fluorescence ratio,1.02 ± 0.068
ACGGCTCAGA,switch fluorescence ratio,1.013 ± 0.0079
GCCAAATTGG,switch fluorescence ratio,1.02 ± 0.0071
TTAAAATACA,switch fluorescence ratio,1.1 ± 0.14
TTGTGGTATT,switch fluorescence ratio,0.99 ± 0.0084
TCACCGTTCT,switch fluorescence ratio,1.03 ± 0.032
CTAAATTTC,switch fluorescence ratio,1.02 ± 0.08
TGGGTTGCGT,switch fluorescence ratio,1.01 ± 0.017
CATGTCGACT,switch fluorescence ratio,0.988 ± 0.046
TTTATCTTGT,switch fluorescence ratio,0.9852 ± 0.0016
GTTAGTAGGT,switch fluorescence ratio,0.994 ± 0.021
TACGGGGGTC,switch fluorescence ratio,1.02 ± 0.047
AAGGAGGGTT,switch fluorescence ratio,0.984 ± 0.025
TGGGGGTATA,switch fluorescence ratio,1.03 ± 0.06
TGTTTTTTCG,switch fluorescence ratio,0.992 ± 0.024
CAGGAGTTGA,switch fluorescence ratio,1.01 ± 0.025
TCGTTGTGTA,switch fluorescence ratio,0.995 ± 0.03
TGCATCAGCT,switch fluorescence ratio,1.03 ± 0.046
GGTGTTCGCA,switch fluorescence ratio,1.02 ± 0.014
AAACATAGCC,switch fluorescence ratio,1.07 ± 0.011
TGAGGAGAAT,switch fluorescence ratio,0.996 ± 0.028
CTCCCGTCCA,switch fluorescence ratio,1.28 ± 0.085
CAGGGTGATA,switch fluorescence ratio,1.06 ± 0.071
TAGGGCAGTA,switch fluorescence ratio,0.99 ± 0.046
AATATTATGA,switch fluorescence ratio,1.01 ± 0.012
ATTGCATAAT,switch fluorescence ratio,1.06 ± 0.078
TTTACGGTTC,switch fluorescence ratio,1.03 ± 0.054
TGGGAAGGTA,switch fluorescence ratio,0.999 ± 0.029
TTTTATTCTG,switch fluorescence ratio,1.01 ± 0.038
GCTAGCGGAC,switch fluorescence ratio,1.14 ± 0.025
CCGGGGGTCC,switch fluorescence ratio,1.02 ± 0.019
ACACGTAGTT,switch fluorescence ratio,0.984 ± 0.021
GTGGGCGATT,switch fluorescence ratio,1.01 ± 0.024
TTGCTACAGT,switch fluorescence ratio,1.01 ± 0.019
AAAACTTTAT,switch fluorescence ratio,0.978 ± 0.013
TATTTTTTA,switch fluorescence ratio,1.019 ± 0.0089
AAGTTGAAAA,switch fluorescence ratio,1.004 ± 0.0028
ATTTTAGGTC,switch fluorescence ratio,0.989 ± 0.025
TTGATCGGTT,switch fluorescence ratio,1.002 ± 0.00027
GGGGAAAGCA,switch fluorescence ratio,1 ± 0.015
ACGATGGCCT,switch fluorescence ratio,1 ± 0.014
TTTGTTGTGG,switch fluorescence ratio,1.01 ± 0.048
TCGTTTTCGT,switch fluorescence ratio,0.9787 ± 0.009
AAGTTTAAAT,switch fluorescence ratio,0.999 ± 0.02
TGGGTTTTGT,switch fluorescence ratio,1.01 ± 0.029
TCCCGTTTTT,switch fluorescence ratio,1.02 ± 0.065
GTTTAACCCG,switch fluorescence ratio,1.002 ± 0.0033
AATACTAAGG,switch fluorescence ratio,1.04 ± 0.007
GATGGGTGAC,switch fluorescence ratio,0.992 ± 0.024
TGCACTCTCA,switch fluorescence ratio,1.04 ± 0.032
GAAATTTAGA,switch fluorescence ratio,1.01 ± 0.028
ATTCATTTTA,switch fluorescence ratio,0.999 ± 0.034
AATGATTTTG,switch fluorescence ratio,0.9765 ± 0.0065
GCTTTTAGCG,switch fluorescence ratio,0.989 ± 0.055
TGATGGGGGG,switch fluorescence ratio,0.994 ± 0.021
GGTTTCTTGC,switch fluorescence ratio,1.02 ± 0.011
GGGGAGTGG,switch fluorescence ratio,1.01 ± 0.025
CACTAGGGGG,switch fluorescence ratio,1.05 ± 0.0083
CCTAGTGTTC,switch fluorescence ratio,0.9801 ± 0.0083
AAGGTGGAAG,switch fluorescence ratio,1.003 ± 0.0046
TGTGATTTAC,switch fluorescence ratio,1.05 ± 0.011
CAATATTAGA,switch fluorescence ratio,1.02 ± 0.07
ACCATTTTTT,switch fluorescence ratio,0.9862 ± 0.006
GGCGGGGCAC,switch fluorescence ratio,0.989 ± 0.038
CTTTATTTAA,switch fluorescence ratio,1.02 ± 0.02
TAAATGGGCT,switch fluorescence ratio,1.04 ± 0.025
GAATTTATAT,switch fluorescence ratio,0.998 ± 0.0032
TGATTGCAGC,switch fluorescence ratio,0.994 ± 0.028
AGACCTAGAC,switch fluorescence ratio,1.05 ± 0.025
AATCGGAGCT,switch fluorescence ratio,1.09 ± 0.026
TCCTTTGCGT,switch fluorescence ratio,1.55 ± 0.39
TTTTTCGAAG,switch fluorescence ratio,0.9894 ± 0.0098
ATGTTGGGCT,switch fluorescence ratio,0.962 ± 0.018
ACGCATGGGT,switch fluorescence ratio,1.04 ± 0.028
CATGATGAGA,switch fluorescence ratio,0.969 ± 0.035
AATAATTGGT,switch fluorescence ratio,1.01 ± 0.012
AAAAGGGAGG,switch fluorescence ratio,1.03 ± 0.019
TGGTTACCCC,switch fluorescence ratio,1.001 ± 0.01
CATTGCAGTT,switch fluorescence ratio,1.01 ± 0.026
GAAATTATCG,switch fluorescence ratio,0.9988 ± 0.0034
GGGAAACATG,switch fluorescence ratio,0.979 ± 0.028
GCTTGTGGAG,switch fluorescence ratio,1.02 ± 0.013
GGGATTTCTG,switch fluorescence ratio,1.03 ± 0.04
TTCATGTGTG,switch fluorescence ratio,1 ± 0.081
TGAGTCTCTG,switch fluorescence ratio,0.998 ± 0.012
AAAATATTTT,switch fluorescence ratio,0.981 ± 0.027
GCGCAGAACG,switch fluorescence ratio,1.07 ± 0.015
TCGCTGAATA,switch fluorescence ratio,1.04 ± 0.052
TTTTTCCCTT,switch fluorescence ratio,1.01 ± 0.034
GGGGGTTGTA,switch fluorescence ratio,0.978 ± 0.054
ATGGCAATTC,switch fluorescence ratio,2.51 ± 0.068
GGAAGGGGAA,switch fluorescence ratio,1.01 ± 0.028
GAATAAAGGT,switch fluorescence ratio,0.979 ± 0.02
CGCAATTAGG,switch fluorescence ratio,3.97 ± 0.46
AGCTATCCCG,switch fluorescence ratio,0.991 ± 0.046
GCACCATTCC,switch fluorescence ratio,1.72 ± 0.07
CGATACCTTT,switch fluorescence ratio,1.003 ± 0.0086
TGTGTTATGG,switch fluorescence ratio,0.968 ± 0.049
AAGTTAGGGT,switch fluorescence ratio,0.999 ± 0.021
CGGATCGTTG,switch fluorescence ratio,0.9655 ± 0.0084
CGTCATTTGG,switch fluorescence ratio,0.9769 ± 0.0044
CCTGTTTTAT,switch fluorescence ratio,0.9953 ± 0.0051
AGATGCTTTA,switch fluorescence ratio,0.9908 ± 0.0027
TCGGCGGGGT,switch fluorescence ratio,1.75 ± 1.3
CGGGGTAAAG,switch fluorescence ratio,0.9787 ± 0.0032
TATGTCGGCC,switch fluorescence ratio,0.975 ± 0.069
GGCTATTCCT,switch fluorescence ratio,1.01 ± 0.0012
AGGTTAAAGG,switch fluorescence ratio,1 ± 0.016
CACGAGCGTT,switch fluorescence ratio,1.011 ± 0.0049
TACCCGCTGT,switch fluorescence ratio,1.56 ± 0.39
AGGTTTTTGC,switch fluorescence ratio,1.02 ± 0.02
CGAGAATGTT,switch fluorescence ratio,1.07 ± 0.1
TCGCGTTCGG,switch fluorescence ratio,1.02 ± 0.013
GGAAAATACA,switch fluorescence ratio,0.985 ± 0.025
GGAAGGGCTT,switch fluorescence ratio,1 ± 0.034
GCGGGCCTGT,switch fluorescence ratio,0.9967 ± 0.0099
AAATAGGTTA,switch fluorescence ratio,1.02 ± 0.046
GGGCGGCCGT,switch fluorescence ratio,1.02 ± 0.044
TTCGCATAAT,switch fluorescence ratio,1.62 ± 0.3
